Like-named read-outs stand apart in the source and are kept apart here.
Legend:
[1] = biological target: T1, myc-GIPR-Rluc (UniProt P48546)
T1 sequence: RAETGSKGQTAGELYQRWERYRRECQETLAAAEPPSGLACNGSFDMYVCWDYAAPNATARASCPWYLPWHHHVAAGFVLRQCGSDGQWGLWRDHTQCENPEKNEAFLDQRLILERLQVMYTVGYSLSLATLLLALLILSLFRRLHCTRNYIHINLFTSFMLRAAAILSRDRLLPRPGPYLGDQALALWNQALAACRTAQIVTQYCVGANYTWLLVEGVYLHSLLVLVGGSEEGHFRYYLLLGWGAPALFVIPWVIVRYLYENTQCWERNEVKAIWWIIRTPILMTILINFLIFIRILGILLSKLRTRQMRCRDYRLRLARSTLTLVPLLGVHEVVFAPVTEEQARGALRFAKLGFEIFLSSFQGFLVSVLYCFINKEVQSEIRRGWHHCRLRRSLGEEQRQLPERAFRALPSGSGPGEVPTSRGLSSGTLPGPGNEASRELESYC

[2] = biological target: T1, myc-GIPR-Rluc; remark: listed apart in the source

| ERK1/2 phosphorylation, biphasic model, high potency component; pEC50 1 [1] | ERK1/2 phosphorylation, biphasic model, low potency component; pEC50 2 [1] | [Ca^2+]i mobilisation, HEK-293S cells with untagged GIPR; pEC50 [1] | cAMP accumulation, 8 min stimulation, HEK-293S cells with untagged GIPR; pEC50 [1] | ERK1/2 phosphorylation, biphasic model, high potency component; pEC50 1 [2] | ERK1/2 phosphorylation, biphasic model, low potency component; pEC50 2 [2] | Substance |
| --- | --- | --- | --- | --- | --- | --- |
| 9.13 -logEC50 | 6.22 -logEC50 | 8.7 -logEC50 | 9.83 -logEC50 |  |  | GIP (1-42) (from UniProt P09681 52-93) (peptide) |
|  |  |  |  | 8.72 -logEC50 | 6.88 -logEC50 | GIP (D-Ala2) (from UniProt P09681 52-93) (peptide) |
|  |  |  |  | 7.49 -logEC50 | 4.5 -logEC50 | GIP (Pro3) (peptide) |

From doi:10.1101/2021.04.08.436756
